Source: patent US5717058A, “Peptide inhibitors of tax-dependent transcription” (priority 1994, dated 1998)
“Also recorded” adds a separate entry of the source. No end group written: not given here.

What was measured:
[1] = solubility in aqueous solution; type: physicochemical
Tax-CREB interaction = target: T1, Tax-CREB interaction (Homo sapiens, UniProt P16220); test: EMSA, inhibition of Tax-mediated enhancement of CREB binding to HTLV-I 21 bp repeat DNA; details: for fold enhancement: 200 nM Tax
T1 construct: made in house
From the text: The HTLV-I transactivator Tax enhances the binding of CREB to the 21 bp repeat sequences contained in the HTLV-I LTR (Zhao and Giam (1992) PNAS 89:7070-7074; Franklin et al. 1993 J. Biol. Chem. 268:21225-21231; Wagner and Green, 1993 Science 262:395-399). We are testing whether peptides representing portions of the primary sequence of Tax can disrupt the Tax-CREB interaction as measured by EMSA.
Purified recombinant CREB was isolated as previously published (Franklin et al. 1993 J. Biol. Chem. 268:21225-21231) and active DNA-binding CREB was purified by heparin-agarose chromatography. Purified recombinant TaxH6 (contains a six-histidine purification tag at the C-terminus of Tax) was isolated an purified as previously published (Zhao and Giam (1991) PNAS 88:12445-11449; Franklin et al. 1993 J. Biol. Chem. 268:21225-21231). Peptides were synthesized and purified as described in Example 1. The third HTLV-I 21 bp repeat (Seq. ID. No. 43) was cloned into the Bgl II site of pUC19. The 70 bp DNA probe fragment was excised with Kpn I and Hind III, phosphatased and gel purified.
EMSA reactions contained 0.1-2.0 nM [^32 P]end-labeled double stranded site 3 probe, 5-50 ng poly (dI-dC) carrier DNA, 1-5 nM purified recombinant CREB, 100-200 nM purified recombinant TaxH6, 15 mM HEPES pH 8.0, 1.5% DMSO, 25 mM Tris-HCl pH 7.9, 6.25 mM MgCl2, 0.5 mM EDTA, 0.5 mM DTT, 60-120 mM KCl, and 10% (v/v) glycerol, and candidate peptide inhibitors in a 20 μl reaction volume. CREB was incubated with the peptides or mock buffer (5% DMSO 50 mM HEPES pH 8.0) for 2-5 min. at room temp. then TaxH6 and DNA mixture were added. The complete reaction mixture was incubated 10-20 min. further at room temp. then analyzed on 5% non-denaturing polyacrylamide gels (49:1, acrylamide:N,N-methylene bisacrylamide). The electrophoresis buffer contained 0.04M Tris, 0.306M glycine, pH 8.5, and 0.1% Nonidet P-40. Gels were dried were autoradiographed. Relative amounts of protein-DNA complex were quantitated using Phosphor Image Analysis.
The primary amino acid sequence of Tax was divided into 29 peptides 20 amino adds in length with an overlap of eight amino acids (see Detailed Description of the Invention and Example 1). The number of the first amino acid in each peptide corresponds to its position in the primary sequence of Tax. Six peptides were tested by EMSA for inhibition of Tax-mediated enhancement. The percentage of radiolabeled DNA probe shifted into protein-DNA complexes in each reaction was quantitated by phosphorimage analysis. Fold enhancement was calculated by dividing the amount of probe shifted in each reaction by the amount of probe shifted in reactions containing CREB, DNA and mock peptide buffer (Table 1). Reactions in Table 1 contained 0.5 nM radiolabeled DNA probe, 10 ng poly dIdC, 1.25% v/v DMSO, 12.5 mM HEPES pH 8.0, 25 mM Tris pH 7.9, 6.25 mM MgCl2, 75 mM KCl, 0.5 mM EDTA, 0.5 mM DTT, 10% v/v glycerol, and CREB, Tax and peptide as indicated in a final volume of 20 μL.
Reactions in Table 2 contained 0.5 nM radiolabeled DNA probe, 10 ng poly dIdC, 1.75% v/v DMSO, 17.5 mM HEPES pH 8.0, 25 mM Tris pH 7.9, 6.25 mM MgCl2, 75 mM KCl, 0.5 mM EDTA, 0.5 mM DTT, 10% v/v glycerol, and CREB, Tax and peptide as indicated in a final volume of 20 μL. Protein-DNA complexes were quantitated by phosphorimage analysis. Fold enhancement was calculated by dividing the amount of complex formed in each reaction by the amount of complex formed in a reaction containing CREB, DNA, mock Tax buffer and mock peptide buffer.
Reactions in Table 3 contained 0.5 nM radiolabeled DNA probe, 10 ng poly dIdC, 1.75% v/v DMSO, 17.5 mM HEPES pH 8.0, 25 mM Tris pH 7.9, 6.25 mM MgCl2, 75 mM KCl, 0.5 mM EDTA, 0.5 mM DTT, 10% v/v glycerol, and CREB, Tax and peptide as indicated in a final volume of 20 μL. Amount of complex was quantitated by densitometry (PDI). […]

T1 sequence (P16220 whole entry): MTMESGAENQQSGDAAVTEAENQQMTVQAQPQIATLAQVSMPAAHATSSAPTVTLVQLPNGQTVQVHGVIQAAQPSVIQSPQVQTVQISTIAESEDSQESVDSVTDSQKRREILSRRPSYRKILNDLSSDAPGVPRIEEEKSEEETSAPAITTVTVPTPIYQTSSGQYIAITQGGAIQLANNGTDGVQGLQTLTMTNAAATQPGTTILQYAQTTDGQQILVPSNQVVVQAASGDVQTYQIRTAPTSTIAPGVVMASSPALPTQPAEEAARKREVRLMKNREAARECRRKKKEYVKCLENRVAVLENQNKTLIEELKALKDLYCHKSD

CC(C)C[C@H](NC(=O)[C@H](CC(C)C)NC(=O)[C@H](Cc1c[nH]cn1)NC(=O)[C@H](CC(C)C)NC(=O)[C@H](CO)NC(=O)[C@H](Cc1c[nH]cn1)NC(=O)[C@H](Cc1ccccc1)NC(=O)[C@@H](N)CO)C(=O)N[C@@H](Cc1ccccc1)C(=O)N[C@@H](CCC(=O)O)C(=O)N[C@@H](CCC(=O)O)C(=O)N[C@@H](CCC(=O)O)C(N)=O [Seq ID No. 54, SFHSLHLLFEEE]
solubility in aqueous solution, in words [1]: more soluble

CC(C)C[C@H](NC(=O)[C@H](CC(C)C)NC(=O)[C@H](Cc1c[nH]cn1)NC(=O)[C@H](CC(C)C)NC(=O)[C@H](CO)NC(=O)[C@H](Cc1c[nH]cn1)NC(=O)[C@H](Cc1ccccc1)NC(=O)[C@H](CO)NC(=O)CNC(=O)CNC(=O)[C@H](CCC(=O)O)NC(=O)[C@@H](N)CCC(=O)O)C(=O)N[C@@H](Cc1ccccc1)C(=O)N[C@@H](CCC(=O)O)C(N)=O [Seq ID No. 55, EEGGSFHSLHLLFE]
solubility in aqueous solution, in words [1]: more soluble

CC(C)C[C@H](NC(=O)[C@H](CC(C)C)NC(=O)[C@H](Cc1c[nH]cn1)NC(=O)[C@H](CC(C)C)NC(=O)[C@H](CO)NC(=O)[C@H](Cc1c[nH]cn1)NC(=O)[C@H](Cc1ccccc1)NC(=O)[C@H](CO)NC(=O)CNC(=O)CNC(=O)[C@H](CCC(=O)O)NC(=O)[C@@H](N)CCC(=O)O)C(=O)N[C@@H](Cc1ccccc1)C(=O)N[C@@H](CCC(=O)O)C(=O)N[C@@H](CCC(=O)O)C(=O)N[C@@H](CCC(=O)O)C(N)=O [Seq ID No. 56, EEGGSFHSLHLLFEEE]
solubility in aqueous solution, in words [1]: more soluble

CC(C)C[C@H](NC(=O)[C@H](CC(C)C)NC(=O)[C@H](Cc1c[nH]cn1)NC(=O)[C@H](CC(C)C)NC(=O)[C@H](CO)NC(=O)[C@H](Cc1c[nH]cn1)NC(=O)[C@H](Cc1ccccc1)NC(=O)[C@@H](N)CO)C(=O)N[C@@H](Cc1ccccc1)C(=O)N[C@@H](CCC(=O)O)C(N)=O [TX301-310, SFHSLHLLFE]
solubility in aqueous solution, in words [1]: sparingly soluble

CC[C@H](C)[C@H](NC(=O)[C@@H]1CCCN1C(=O)[C@@H](NC(=O)[C@H](CC(N)=O)NC(=O)[C@@H](NC(=O)[C@H](Cc1ccc(O)cc1)NC(=O)[C@H](CCC(=O)O)NC(=O)[C@H](CCC(=O)O)NC(=O)[C@H](Cc1ccccc1)NC(=O)[C@H](CC(C)C)NC(=O)[C@H](CC(C)C)NC(=O)[C@H](Cc1c[nH]cn1)NC(=O)[C@H](CC(C)C)NC(=O)[C@H](CO)NC(=O)[C@H](Cc1c[nH]cn1)NC(=O)[C@H](Cc1ccccc1)NC(=O)[C@@H](N)CO)[C@@H](C)O)[C@@H](C)CC)C(=O)N[C@@H](CO)C(=O)N[C@@H](CC(C)C)C(=O)N[C@@H](CC(C)C)C(N)=O [TX301]
solubility in aqueous solution, in words [1]: limited solubility in aqueous solutions; also recorded: sparingly soluble

FLSEFLHSHL [SCM2, reference compound]
fold enhancement (Tax-CREB interaction; Table 8, SCM2 0.75 μM, 2.3 nM CREB, Tax without peptide 17.0): 17.9 fold
fold enhancement (Tax-CREB interaction; Table 8, SCM2 1.50 μM, 2.3 nM CREB, Tax without peptide 17.0): 17.8 fold
fold enhancement (Tax-CREB interaction; Table 8, SCM2 7.50 μM, 2.3 nM CREB, Tax without peptide 17.0): 14.5 fold
fold enhancement (Tax-CREB interaction; Table 8, SCM2 15.00 μM, 2.3 nM CREB, Tax without peptide 17.0): 9.7 fold
fold enhancement (Tax-CREB interaction; Table 8, SCM2 75.00 μM, 2.3 nM CREB, Tax without peptide 17.0): 3.3 fold
fold enhancement (Tax-CREB interaction; Table 8, SCM2 150.00 μM, 2.3 nM CREB, Tax without peptide 17.0): 1.1 fold

HSLHLLFEEY-NH2 [TX303-313, HSLHLLFEEY]
solubility in aqueous solution, in words [1]: sparingly soluble

TX313: 20 amino acid Tax peptide beginning at amino acid 313, overlaps TX301 by 8 amino acids
effect on Tax-mediated enhancement of CREB binding to DNA (complex formation), in words (Tax-CREB interaction; EMSA, CREB + Tax + peptide): slight enhancement of complex formation at some concentrations
fold enhancement (Tax-CREB interaction; Table 4, TX313 35 μM, 3.4 nM CREB, Tax without peptide 4.48, densitometry): 5.16 fold
fold enhancement (Tax-CREB interaction; Table 4, TX313 70 μM, 3.4 nM CREB, Tax without peptide 4.48, densitometry): 5.60 fold
fold enhancement (Tax-CREB interaction; Table 4, TX313 140 μM, 3.4 nM CREB, Tax without peptide 4.48, densitometry): 4.49 fold
dose dependence of the effect on Tax-mediated enhancement, in words (Tax-CREB interaction; titration in EMSA): did not have a dose dependent affect; also recorded: no dose dependence
